Test results reported in IntAct's records for PubMed 22632968.

Experiments:
[1] = molecular target: sun2_human SUN2 (UniProt Q9UH99)
[2] = molecular target: sun1_human SUN1 (UniProt O94901)
[3] = molecular target: sun1_human SUN1 (UniProt O94901); remark: listed apart in the source
[4] = molecular target: sun2_human SUN2 (UniProt Q9UH99); remark: listed apart in the source
[5] = molecular target: sun2_human SUN2 (UniProt Q9UH99); remark: listed apart in the source
[6] = molecular target: sun2_human SUN2 (UniProt Q9UH99); remark: listed apart in the source
[7] = molecular target: sun1_human SUN1 (UniProt O94901); remark: listed apart in the source

Sequence of sun1_human SUN1 (O94901 whole entry): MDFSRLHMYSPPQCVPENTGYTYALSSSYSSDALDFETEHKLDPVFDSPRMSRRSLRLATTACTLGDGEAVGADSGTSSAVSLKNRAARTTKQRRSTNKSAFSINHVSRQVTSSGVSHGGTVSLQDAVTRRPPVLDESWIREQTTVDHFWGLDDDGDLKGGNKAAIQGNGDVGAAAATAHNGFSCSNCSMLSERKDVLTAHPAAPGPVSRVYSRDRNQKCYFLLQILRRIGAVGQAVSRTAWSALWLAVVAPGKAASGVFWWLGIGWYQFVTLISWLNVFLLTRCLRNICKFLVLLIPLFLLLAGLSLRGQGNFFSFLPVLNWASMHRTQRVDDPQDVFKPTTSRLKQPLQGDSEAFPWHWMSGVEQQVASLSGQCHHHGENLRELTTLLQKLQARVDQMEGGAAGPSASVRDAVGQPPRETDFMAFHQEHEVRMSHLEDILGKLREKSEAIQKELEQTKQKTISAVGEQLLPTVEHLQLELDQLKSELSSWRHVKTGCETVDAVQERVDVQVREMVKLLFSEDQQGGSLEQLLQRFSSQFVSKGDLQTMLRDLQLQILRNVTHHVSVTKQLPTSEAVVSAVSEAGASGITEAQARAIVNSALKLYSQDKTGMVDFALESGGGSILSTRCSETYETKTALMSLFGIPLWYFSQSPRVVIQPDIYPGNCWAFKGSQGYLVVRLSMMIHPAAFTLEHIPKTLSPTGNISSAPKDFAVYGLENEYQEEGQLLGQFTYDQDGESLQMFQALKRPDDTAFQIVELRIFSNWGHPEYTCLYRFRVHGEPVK
Sequence of sun2_human SUN2 (Q9UH99 whole entry): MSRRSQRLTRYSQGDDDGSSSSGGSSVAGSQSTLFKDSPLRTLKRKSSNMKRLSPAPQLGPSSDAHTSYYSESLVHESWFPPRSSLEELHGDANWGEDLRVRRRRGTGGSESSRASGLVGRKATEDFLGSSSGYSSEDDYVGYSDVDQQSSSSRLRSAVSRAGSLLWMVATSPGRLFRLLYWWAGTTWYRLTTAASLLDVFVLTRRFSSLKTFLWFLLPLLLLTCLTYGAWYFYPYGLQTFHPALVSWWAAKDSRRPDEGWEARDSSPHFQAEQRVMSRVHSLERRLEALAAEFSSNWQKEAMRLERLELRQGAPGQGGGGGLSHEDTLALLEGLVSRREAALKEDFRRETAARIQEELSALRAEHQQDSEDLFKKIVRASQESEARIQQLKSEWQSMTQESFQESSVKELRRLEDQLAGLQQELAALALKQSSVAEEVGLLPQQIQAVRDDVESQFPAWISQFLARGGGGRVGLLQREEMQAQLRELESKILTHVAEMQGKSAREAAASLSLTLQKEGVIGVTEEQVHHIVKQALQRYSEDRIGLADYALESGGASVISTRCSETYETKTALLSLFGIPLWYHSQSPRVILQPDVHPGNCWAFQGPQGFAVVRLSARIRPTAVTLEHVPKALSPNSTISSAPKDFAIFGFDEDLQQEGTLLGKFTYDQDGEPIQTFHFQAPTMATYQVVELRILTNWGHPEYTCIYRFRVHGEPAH

## Nesprin-1 (Homo sapiens), Q8NF91-1 C8774S
[1]
  effect of a mutation on the interaction: disrupting interaction strength
[2]
  effect of a mutation on the interaction: disrupting interaction strength
[3]
  effect of a mutation on the interaction: disrupting interaction
[4]
  effect of a mutation on the interaction: decreasing interaction strength

## Nesprin-2 (Homo sapiens), Q8WXH0 L6876A
[5]
  effect of a mutation on the interaction: disrupting interaction strength

## Nesprin-2 (Homo sapiens), Q8WXH0 P6883A
[5]
  effect of a mutation on the interaction: disrupting interaction strength

## Nesprin-2 (Homo sapiens), Q8WXH0 Y6878A
[5]
  effect of a mutation on the interaction: disrupting interaction strength

## Nesprin-2 (Homo sapiens), Q8WXH0-1 C6862S
[6]
  effect of a mutation on the interaction: disrupting interaction strength
[7]
  effect of a mutation on the interaction: disrupting interaction strength
